Source: the Immune Epitope Database (IEDB)

Key:
HLA-A*23:01 = assay: IEDB peptide-MHC binding, purified MHC/competitive/fluorescence; filed as Kd, often an IC50 or EC50 that approximates it; ≥ and ≤ were set here for values at or beyond the usual limits of such assays
HLA-A*02:01 [1] = assay: as above
HLA-A*02:03 = assay: as above
HLA-A*02:16 = assay: as above
HLA-A*29:02 = assay: as above
HLA-A*02:19 = assay: as above
HLA-B*51:01 = assay: as above
HLA-B*15:01 [2] = assay: as above
HLA-A*69:01 [3] = assay: as above
HLA-B*57:01 = assay: as above
HLA-B*18:01 [4] = assay: as above
HLA-B*46:01 [5] = assay: as above
HLA-A*26:01 = assay: as above
HLA-B*27:03 = assay: as above
HLA-A*02:12 = assay: as above
HLA-A*02:11 = assay: as above
HLA-B*39:01 = assay: as above
HLA-B*15:17 = assay: as above
HLA-A*24:03 = assay: as above
HLA-A*03:01 [6] = assay: as above
HLA-A*02:01 [7] = assay: IEDB peptide-MHC binding, purified MHC/direct/fluorescence; filed as Kd, often an IC50 or EC50 that approximates it; ≥ and ≤ were set here for values at or beyond the usual limits of such assays
HLA-A*24:02 [8] = assay: as above
HLA-A*01:01 = assay: as above
HLA-B*15:09 = assay: as above; details: source organism: Influenza A virus(A/swine/Henan/8/2004(H9N2))
HLA-B*15:01 [9] = assay: as above
HLA-A*69:01 [10] = assay: as above; details: source organism: Influenza A virus (A/equine/Massachussetts/213/2003(H3N8))
HLA-B*18:01 [11] = assay: as above; details: source organism: Influenza A virus (A/equine/Massachussetts/213/2003(H3N8))
HLA-B*46:01 [12] = assay: as above
HLA-B*27:05 = assay: as above
HLA-A*11:01 [13] = assay: as above
HLA-B*40:01 = assay: as above
HLA-B*07:02 [14] = assay: as above
HLA-A*31:01 = assay: as above; details: source organism: Influenza A virus (A/equine/Massachussetts/213/2003(H3N8))
HLA-B*58:01 = assay: as above
HLA-A*03:01 [15] = assay: as above
HLA-A*24:02 [16] = assay: IEDB peptide-MHC binding, purified MHC/competitive/fluorescence; ≥ and ≤ were set here for values at or beyond the usual limits of such assays; details: source organism: Zaire ebolavirus
HLA-B*08:01 [17] = assay: as above; details: source organism: Zaire ebolavirus
HLA-B*44:02 = assay: IEDB peptide-MHC binding, purified MHC/direct/fluorescence; filed as Kd, often an IC50 or EC50 that approximates it; ≥ and ≤ were set here for values at or beyond the usual limits of such assays; details: source organism: Influenza A virus (A/WSN/1933(H1N1))
HLA-B*08:01 [18] = assay: as above; details: source organism: Influenza A virus (A/WSN/1933(H1N1))
HLA-A*68:02 = assay: IEDB peptide-MHC binding, purified MHC/competitive/fluorescence; filed as Kd, often an IC50 or EC50 that approximates it; ≥ and ≤ were set here for values at or beyond the usual limits of such assays; details: source organism: Burkholderia orbicola
HLA-A*02:01 [19] = assay: IEDB peptide-MHC binding, purified MHC/competitive/fluorescence; ≥ and ≤ were set here for values at or beyond the usual limits of such assays; details: source organism: Zaire ebolavirus
HLA-B*15:01 [20] = assay: as above; details: source organism: Zaire ebolavirus
HLA-A*11:01 [21] = assay: as above; details: source organism: Zaire ebolavirus
HLA-B*07:02 [22] = assay: as above; details: source organism: Zaire ebolavirus
HLA-A*03:01 [23] = assay: as above; details: source organism: Zaire ebolavirus
[24] = source organism: Brucella melitensis bv. 1 str. 16M
[25] = source organism: Influenza A virus (A/equine/Massachussetts/213/2003(H3N8))
[26] = source organism: Influenza A virus (A/WSN/1933(H1N1))
[27] = source organism: Burkholderia orbicola
[28] = source organism: Zaire ebolavirus

AVGVVCTGL
Kd (HLA-A*23:01; [24]): ≥ 20 µM | Kd (HLA-A*02:01 [1]; [24]): ≥ 20 µM | Kd (HLA-A*02:03; [24]): ≥ 20 µM | Kd (HLA-A*02:16; [24]): 0.273 µM | Kd (HLA-A*29:02; [24]): ≥ 20 µM | Kd (HLA-A*02:19; [24]): ≥ 20 µM | Kd (HLA-B*51:01; [24]): ≥ 20 µM | Kd (HLA-B*15:01 [2]; [24]): ≥ 20 µM | Kd (HLA-A*69:01 [3]; [24]): ≥ 20 µM | Kd (HLA-B*57:01; [24]): ≥ 20 µM | Kd (HLA-B*18:01 [4]; [24]): ≥ 20 µM | Kd (HLA-B*46:01 [5]; [24]): ≥ 20 µM | Kd (HLA-A*26:01; [24]): ≥ 20 µM | Kd (HLA-B*27:03; [24]): ≥ 20 µM | Kd (HLA-A*02:12; [24]): ≥ 20 µM | Kd (HLA-A*02:11; [24]): ≥ 20 µM | Kd (HLA-B*39:01; [24]): ≥ 20 µM | Kd (HLA-B*15:17; [24]): ≥ 20 µM | Kd (HLA-A*24:03; [24]): ≥ 20 µM | Kd (HLA-A*03:01 [6]; [24]): ≥ 20 µM

ILKGKFQTA
Kd (HLA-A*02:01 [7]; [25]): ≥ 20 µM | Kd (HLA-A*24:02 [8]; [25]): ≥ 20 µM | Kd (HLA-A*01:01; [25]): ≥ 20 µM | Kd (HLA-B*15:09): ≥ 20 µM | Kd (HLA-B*15:01 [9]; source organism: Influenza A virus (A/Puerto Rico/8/34/Mount Sinai(H1N1))): 5.72 µM | Kd (HLA-A*69:01 [10]): ≥ 20 µM | Kd (HLA-B*18:01 [11]): ≥ 20 µM | Kd (HLA-B*46:01 [12]; [25]): ≥ 20 µM | Kd (HLA-B*27:05; [25]): ≥ 20 µM | Kd (HLA-A*11:01 [13]; [25]): ≥ 20 µM | Kd (HLA-B*40:01; [25]): ≥ 20 µM | Kd (HLA-B*07:02 [14]; [25]): ≥ 20 µM | Kd (HLA-A*31:01): ≥ 20 µM | Kd (HLA-B*58:01; [25]): ≥ 20 µM | Kd (HLA-A*03:01 [15]; [25]): ≥ 20 µM

NHKNKFMAI
IC50 (HLA-A*24:02 [16]): 19.4 µM | IC50 (HLA-B*08:01 [17]): 15.9 µM

NLEPGTFDL
Kd (HLA-A*24:02 [8]; [26]): ≥ 20 µM | Kd (HLA-A*01:01; [26]): ≥ 20 µM | Kd (HLA-B*15:01 [9]; [26]): ≥ 20 µM | Kd (HLA-B*46:01 [12]; [26]): ≥ 20 µM | Kd (HLA-B*27:05; [26]): ≥ 20 µM | Kd (HLA-A*11:01 [13]; [26]): ≥ 20 µM | Kd (HLA-B*44:02): ≥ 20 µM | Kd (HLA-B*40:01; [26]): ≥ 20 µM | Kd (HLA-B*07:02 [14]; [26]): ≥ 20 µM | Kd (HLA-B*08:01 [18]): ≥ 20 µM | Kd (HLA-B*58:01; [26]): ≥ 20 µM | Kd (HLA-A*03:01 [15]; [26]): ≥ 20 µM

RIEQLYPFA
Kd (HLA-A*23:01; [27]): ≥ 20 µM | Kd (HLA-A*02:01 [1]; [27]): ≥ 20 µM | Kd (HLA-A*02:03; [27]): ≥ 20 µM | Kd (HLA-A*02:16; [27]): 0.292 µM | Kd (HLA-A*29:02; [27]): ≥ 20 µM | Kd (HLA-A*68:02): ≥ 20 µM | Kd (HLA-A*02:19; [27]): ≥ 20 µM | Kd (HLA-B*51:01; [27]): ≥ 20 µM | Kd (HLA-B*15:01 [2]; [27]): ≥ 20 µM | Kd (HLA-A*69:01 [3]; [27]): ≥ 20 µM | Kd (HLA-B*57:01; [27]): ≥ 20 µM | Kd (HLA-B*18:01 [4]; [27]): ≥ 20 µM | Kd (HLA-B*46:01 [5]; [27]): ≥ 20 µM | Kd (HLA-A*26:01; [27]): ≥ 20 µM | Kd (HLA-B*27:03; [27]): ≥ 20 µM | Kd (HLA-A*02:12; [27]): ≥ 20 µM | Kd (HLA-A*02:11; [27]): ≥ 20 µM | Kd (HLA-B*39:01; [27]): ≥ 20 µM | Kd (HLA-B*15:17; [27]): ≥ 20 µM | Kd (HLA-A*24:03; [27]): ≥ 20 µM | Kd (HLA-A*03:01 [6]; [27]): ≥ 20 µM

RLMRTNFLI
Kd (HLA-B*18:01 [4]; [28]): ≥ 20 µM | Kd (HLA-B*46:01 [5]; [28]): ≥ 20 µM | Kd (HLA-A*26:01; [28]): ≥ 20 µM | Kd (HLA-A*02:01 [7]; [28]): 0.0175 µM | IC50 (HLA-A*02:01 [19]): 0.514 µM | IC50 (HLA-A*24:02 [16]): 0.0213 µM | IC50 (HLA-B*15:01 [20]): 11.4 µM | IC50 (HLA-A*11:01 [21]): 3.95 µM | IC50 (HLA-B*07:02 [22]): 15.9 µM | IC50 (HLA-B*08:01 [17]): 58.7 µM | IC50 (HLA-A*03:01 [23]): 3.42 µM

TNFLIKFLL
IC50 (HLA-A*02:01 [19]): ≥ 181 µM | IC50 (HLA-A*24:02 [16]): 3.2 µM | IC50 (HLA-B*08:01 [17]): ≥ 523 µM
